{"source": "patent US20020081601A1", "about": "“Methods and compositions for diagnosis and treatment of cancer based on the transcription factor ets2” (MUSC Foundation For Research Development., priority 1998, published 2002)", "molecules": {"B1": {"name": "DN-ETS2: dominant negative ETS2 mutant: DNA binding domain (C-terminal amino acids 334-469) of human ETS2, expressed from pDN-ETS2 (protein, UniProt P15036 334-469, looked up, fragment)", "chain": "YIQERSDPVEQGKPVIPAAVLAGFTGSGPIQLWQFLLELLSDKSCQSFISWTGDGWEFKLADPDEVARRWGKRKNKPKMNYEKLSRGLRYYYDKNIIHKTSGKRYVYRFVCDLQNLLGFTPEELHAILGVQPDTED"}}, "test_system": "DU145", "test": "Soft agar growth assay (anchorage independent growth)", "type": "cell-based, human", "conditions": "DN-ETS2 transfectants vs DU145 parental; after three weeks", "procedure": "Soft agar growth assays were performed in six-well plates (35-mm wells). Cells (20,000) were plated in 0.4% agar (Sigma) in RPMI 1640 supplemented with 10% FBS. An underlayer of 0.8% agar was used to prevent attachment of cells. Triplicate assays initiated with 20,000 cells were fed weekly by agar overlay and scored after 3 weeks. The soft agar assays were performed twice, independently.", "data": [{"molecule": "B1", "values": [{"measurement": "anchorage-independent growth in soft agar", "result": "do not grow well in soft agar"}]}]}
